This is an account of results in patent publication WO2018065552A1 (dated 2018).

The target of this assay is T1, human CD39 endogenously expressed on Ramos human lymphoma cells (human, UniProt P49961 1-510).
T1 construct: also called NTPDase1; ENTPD1
T1 sequence: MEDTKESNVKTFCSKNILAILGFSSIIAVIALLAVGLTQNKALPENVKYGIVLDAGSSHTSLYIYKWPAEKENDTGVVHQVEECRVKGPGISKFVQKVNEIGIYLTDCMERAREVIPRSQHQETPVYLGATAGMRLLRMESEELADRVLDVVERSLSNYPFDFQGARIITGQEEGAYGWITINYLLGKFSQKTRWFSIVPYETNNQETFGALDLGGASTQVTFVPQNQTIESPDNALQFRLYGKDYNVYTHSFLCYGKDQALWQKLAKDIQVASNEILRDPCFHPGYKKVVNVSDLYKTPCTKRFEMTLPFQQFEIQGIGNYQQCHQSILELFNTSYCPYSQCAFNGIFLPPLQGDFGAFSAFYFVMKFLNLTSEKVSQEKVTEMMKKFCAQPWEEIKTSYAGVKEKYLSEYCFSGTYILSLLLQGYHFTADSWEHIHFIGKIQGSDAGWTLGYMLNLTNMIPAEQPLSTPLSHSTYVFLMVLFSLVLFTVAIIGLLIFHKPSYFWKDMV
In words: flow cytometry, antibody titration on Ramos cells endogenously expressing CD39.

B1: HH3/L0 (antibody, human IgG1, V domains shown)
VH: QVQLVQSGSELKKPGASVKVSCKASGYTFTHYGMNWVRQAPGQGLKWMGWINTYTGEPTYAQDFKGRFVFSLDTSVSTAYLQISSLKAEDTAVYYCARRRYEGNSVFYYFDYWGQGTTVTVSS
VL: DIQMTQSPSSLSASVGDRVTITCRASENIYSYFSWYQQKPGKAPKLLIYTAKTLAEGVPSRFSGSGSGTDFTLTISSLQPEDFATYYCQHHYVTPYTFGGGTKVEIK
notes: Human IgG1 N297Q, huCk; also called mAb38
On to B1, for which the binding result is reported as “binds”.

B2: HH4/L0 (antibody, human IgG1, V domains shown)
VH: QVQLVQSGSELKKPGASVKVSCKASGYTFTHYGMNWVRQAPGQGLKWMGWINTETGEPTYADDFKGRFVFSLDTSVSTAYLQISSLKAEDTAVYYCARRRYEGNYVFYYFDYWGQGTTVTVSS
VL: DIQMTQSPSSLSASVGDRVTITCRASENIYSYFSWYQQKPGKAPKLLIYTAKTLAEGVPSRFSGSGSGTDFTLTISSLQPEDFATYYCQHHYVTPYTFGGGTKVEIK
notes: Human IgG1 N297Q, huCk; HH4 has a glutamic acid substitution at Kabat residue 53; its row is lacking in this copy; If the inference holds, this is mAb39
For the molecule B2, the binding result is listed as “no binding”.
